Assay results published in US20260242478A1 (published 2026).
Where no end group is shown, it is not given here.

Tests used:
[1] = target: T1, Anti-PSMA Fab (SEQ ID NOs: 19, 20); test: phage binding ELISA on captured PSMA Fab; competitor PSMA antigen pre-incubated in the well
T1 construct: Biotinylated and captured on neutravidin coated plates in the phage ELISA; also called 006 PSMA Fab
Experimental: (§1) Clonal phage were harvested as crude supernatants and screened via standard ELISAs. […] Prior to the addition of clonal phage. wells were incubated with blocking buffer and PSMA antigen or blocking buffer alone. Without washing or aspirating, clonal phage supernatants were then added to the wells and incubated for a short time. Wells were then washed followed by detection of bound phage using a horse radish conjugated anti-M13 antibody.

[2] = target: T1, Anti-PSMA Fab (SEQ ID NOs: 19, 20); test: phage binding ELISA; biotinylated PSMA Fab on neutravidin plate, bound phage detected with anti-M13 HRP
Experimental: as §1

[3] = target: T2, Anti-PSMA Fab (SEQ ID NOs: 19, 20); test: phage binding ELISA on captured PSMA Fab pre-incubated with PSMA antigen as competitor, anti-M13 HRP detection
T2 construct: Biotinylated PSMA Fab captured on neutravidin coated plates in the phage ELISA; also called 006 PSMA Fab
Experimental: as §1

[4] = target: T2, Anti-PSMA Fab (SEQ ID NOs: 19, 20); test: phage binding ELISA; clonal phage supernatant on biotinylated PSMA Fab captured on neutravidin plates, anti-M13 HRP detection
Experimental: as §1

[5] = target: T3, Anti-PSMA Fab (SEQ ID NOs: 19, 20); test: phage binding ELISA; biotinylated PSMA Fab on neutravidin plate, clonal phage supernatant, anti-M13 HRP detection;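 note: wells were preincubated with blocking buffer either containing PSMA antigen or without it before crude phage supernatant was added, briefly incubated, then washed prior to detection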
T3 construct: In the panning ELISA the Fab was biotinylated and captured on neutravidin coated plates; also called 006 PSMA Fab
Experimental: as §1

[6] = target: T3, Anti-PSMA Fab (SEQ ID NOs: 19, 20); test: phage binding ELISA; biotinylated PSMA Fab on neutravidin plate pre-incubated with PSMA antigen (competitor), anti-M13 HRP detection;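 note: competition ELISA where clonal phage supernatants were added to wells preincubated with PSMA antigen or with blocking buffer only as control, bound phage read via HRP-coupled anti-M13 antibody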
Experimental: as §1

| Binder | Anti-PSMA Fab signal in the presence of PSMA [1] | Anti-PSMA Fab (SEQ ID NOs: 19, 20) signal [2] | Anti-PSMA Fab signal in the presence of PSMA [3] | Anti-PSMA Fab (SEQ ID NOs: 19, 20) signal [4] | also measured |
| --- | --- | --- | --- | --- | --- |
| SVKMCTPAWMCSGF (cysteine pairing not given here; also: fused to phage pIII, sequence and linker not given here, Peptide-180 library clone, tested as clonal phage supernatant; not shown: pIII of the bacteriophage to which the peptide is fused) [Phage-1899] | 0.0752 | 2.03 | – | – | – |
| LEKWCIPAWMCEWS (cysteine pairing not given here; also: fused to phage pIII, sequence and linker not given here, Peptide-180 library clone, tested as clonal phage supernatant; not shown: pIII of the bacteriophage to which the peptide is fused) [Phage-1891] | 0.113 | 2.04 | – | – | – |
| DVKWCIPAWMCEGF (cysteine pairing not given here; also: displayed as fusion to phage pIII, Peptide-180 library clone, tested as clonal phage supernatant; not shown: pIII of the bacteriophage to which the peptide is fused) [Phage-1904] | 0.105 | 2.02 | – | – | – |
| SFAWCIPPWMCEIT [Phage-1915] | – | – | 0.127 | 2 | – |
| EIRLCTPSWMCMGF (cysteine pairing not given here; also: displayed as fusion to phage pIII, Peptide-180 library clone, tested as clonal phage supernatant; not shown: pIII of the bacteriophage to which the peptide is fused) [Phage-1905] | 0.0792 | 2.02 | – | – | – |
| WEKMCVPSWMCHFS (cysteine pairing not given here; also: fused to phage pIII, sequence and linker not given here, Peptide-180 library clone, tested as clonal phage supernatant; not shown: pIII of the bacteriophage to which the peptide is fused) [Phage-1895] | 0.0735 | 2.03 | – | – | – |
| AIKWCIPSWMCVED (tested as crude clonal phage supernatant; also called AIKWCIPSWMCVED) [Phage-1890] | – | – | – | – | Anti-PSMA Fab (SEQ ID NOs: 19, 20) signal [5]: 2.04; Anti-PSMA Fab signal in the presence of PSMA [6]: 0.0876 |
| VLKWCTPAWMCEIF (cysteine pairing not given here; also: fused to phage pIII, sequence and linker not given here, Peptide-180 library clone, tested as clonal phage supernatant; not shown: pIII of the bacteriophage to which the peptide is fused) [Phage-1896] | 0.141 | 2.03 | – | – | – |
| MEKLCIPAWMCDGM (cysteine pairing not given here; also: fused to phage pIII, sequence and linker not given here, Peptide-180 library clone, tested as clonal phage supernatant; not shown: pIII of the bacteriophage to which the peptide is fused) [Phage-1897] | 0.279 | 2.03 | – | – | – |
| VSRLCIPTWMCDYS (cysteine pairing not given here; also: displayed as fusion to phage pIII, Peptide-180 library clone, tested as clonal phage supernatant; not shown: pIII of the bacteriophage to which the peptide is fused) [Phage-1900] | 0.0757 | 2.03 | – | – | – |
| VPKLCTPVWMCTGF (cysteine pairing not given here; also: fused to phage pIII, sequence and linker not given here, Peptide-180 library clone, tested as clonal phage supernatant; not shown: pIII of the bacteriophage to which the peptide is fused) [Phage-1892] | 0.0783 | 2.04 | – | – | – |
| GDILCRPEWMCTGF [Phage-1910] | – | – | 0.111 | 2.01 | – |
| FDKWCIPPWMCQAL (cysteine pairing not given here; also: fused to phage pIII, sequence and linker not given here, Peptide-180 library clone, tested as clonal phage supernatant; not shown: pIII of the bacteriophage to which the peptide is fused) [Phage-1893] | 0.112 | 2.04 | – | – | – |
| FTIWCIPEWMCLHE [Phage-1916] | – | – | 0.0999 | 2 | – |
| IDMRCTPNWMCIGF (cysteine pairing not given here; also: displayed as fusion to phage pIII, Peptide-180 library clone, tested as clonal phage supernatant; not shown: pIII of the bacteriophage to which the peptide is fused) [Phage-1903] | 0.081 | 2.03 | – | – | – |
| GDPWCIPAWMCMEF [Phage-1911] | – | – | 0.088 | 2.01 | – |
| LIPWCIPAWMCTSD (cysteine pairing not given here; also: displayed as fusion to phage pIII, Peptide-180 library clone, tested as clonal phage supernatant; not shown: pIII of the bacteriophage to which the peptide is fused) [Phage-1902] | 0.0863 | 2.03 | – | – | – |
| VMKWCIPEWMCYML [Phage-1906] | – | – | 0.204 | 2.02 | – |
| DVMWCKPSWMCDWL (tested as crude clonal phage supernatant) [Phage-1889] | – | – | – | – | Anti-PSMA Fab (SEQ ID NOs: 19, 20) signal [5]: 2.04; Anti-PSMA Fab signal in the presence of PSMA [6]: 0.127 |
| AEKWCFPAWMCERP (cysteine pairing not given here; also: fused to phage pIII, sequence and linker not given here, Peptide-180 library clone, tested as clonal phage supernatant; not shown: pIII of the bacteriophage to which the peptide is fused) [Phage-1898] | 0.0803 | 2.03 | – | – | – |
| MMKWCIPTWMCEME [Phage-1912] | – | – | 0.132 | 2 | – |
| VIKWCTPAWMCTAL [Phage-1914] | – | – | 0.0733 | 2 | – |
| ESIRCIPLWMCEGF [Phage-1913] | – | – | 0.0894 | 2 | – |
| SAHMCIPPWMCLHT [Phage-1907] | – | – | 0.133 | 2.02 | – |
| FEKWCTPAWMCAGW (cysteine pairing not given here; also: fused to phage pIII, sequence and linker not given here, Peptide-180 library clone, tested as clonal phage supernatant; not shown: pIII of the bacteriophage to which the peptide is fused) [Phage-1894] | 0.0792 | 2.04 | – | – | – |
| WDNWCIPPWMCIGF [Phage-1908] | – | – | 0.186 | 2.02 | – |
| TDMWCTPMWMCMGF (cysteine pairing not given here; also: displayed as fusion to phage pIII, Peptide-180 library clone, tested as clonal phage supernatant; not shown: pIII of the bacteriophage to which the peptide is fused) [Phage-1901] | 0.0829 | 2.03 | – | – | – |
| MMKWCTPAWMCEEA [Phage-1909] | – | – | 0.0691 | 2.01 | – |
